Laboratory results published in paper PMC7080496.

Key:
[1] = molecular target: Adenosine A2A receptor (A2AAR), human, residues 1 to 316, with the M1A/M4T mutation, reconstituted in rHDLs (nanodiscs) (human) (UniProt P29274)
[2] = molecular target: Adenosine A2A receptor (A2AAR), human, residues 1 to 316, with the M1A/M4T mutation, reconstituted in rHDLs (nanodiscs) (human) (UniProt P29274); remark: listed apart in the source
[3] = molecular target: Adenosine A2A receptor (A2AAR), human, residues 1 to 316, with the M1A/M4T mutation, reconstituted in rHDLs (nanodiscs) (human) (UniProt P29274); remark: listed apart in the source

Adenosine A2A receptor (A2AAR), human, residues 1 to 316, with the M1A/M4T mutation, reconstituted in rHDLs (nanodiscs) (human), sequence (P29274 1-316 M1A/M4T): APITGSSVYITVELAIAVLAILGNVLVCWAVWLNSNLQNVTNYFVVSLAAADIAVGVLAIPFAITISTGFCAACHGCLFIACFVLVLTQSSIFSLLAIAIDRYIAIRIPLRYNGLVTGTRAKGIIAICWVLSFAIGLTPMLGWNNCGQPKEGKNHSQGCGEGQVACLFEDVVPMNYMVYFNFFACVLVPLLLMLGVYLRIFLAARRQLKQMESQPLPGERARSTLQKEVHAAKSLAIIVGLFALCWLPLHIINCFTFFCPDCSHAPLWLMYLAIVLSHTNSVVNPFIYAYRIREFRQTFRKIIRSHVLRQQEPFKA
heterotrimeric G protein consisting of human Gαs, bovine Gβ1, and human Gγ2, sequence (P63092 whole entry): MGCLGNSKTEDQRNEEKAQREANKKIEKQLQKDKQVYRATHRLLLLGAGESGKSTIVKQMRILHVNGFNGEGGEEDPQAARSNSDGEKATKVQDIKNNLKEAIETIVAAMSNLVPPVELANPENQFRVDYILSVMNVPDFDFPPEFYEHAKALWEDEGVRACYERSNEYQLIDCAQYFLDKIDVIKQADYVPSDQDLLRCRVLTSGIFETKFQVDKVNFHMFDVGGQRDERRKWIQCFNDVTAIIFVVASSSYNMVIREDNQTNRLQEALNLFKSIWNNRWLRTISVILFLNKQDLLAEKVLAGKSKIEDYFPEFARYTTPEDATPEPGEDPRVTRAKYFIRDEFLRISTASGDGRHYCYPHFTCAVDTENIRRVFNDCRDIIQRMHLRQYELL
heterotrimeric G protein consisting of human Gαs, bovine Gβ1, and human Gγ2, sequence (P62871 whole entry): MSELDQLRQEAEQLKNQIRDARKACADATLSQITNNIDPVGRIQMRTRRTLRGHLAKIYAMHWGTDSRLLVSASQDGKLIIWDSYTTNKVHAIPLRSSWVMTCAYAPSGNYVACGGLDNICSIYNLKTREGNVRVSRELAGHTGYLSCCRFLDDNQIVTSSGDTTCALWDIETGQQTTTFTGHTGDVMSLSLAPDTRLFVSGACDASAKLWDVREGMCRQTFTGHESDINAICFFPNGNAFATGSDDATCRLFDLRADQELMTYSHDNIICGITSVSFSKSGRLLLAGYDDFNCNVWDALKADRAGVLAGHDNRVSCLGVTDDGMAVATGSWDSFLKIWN
heterotrimeric G protein consisting of human Gαs, bovine Gβ1, and human Gγ2, sequence (P59768 whole entry): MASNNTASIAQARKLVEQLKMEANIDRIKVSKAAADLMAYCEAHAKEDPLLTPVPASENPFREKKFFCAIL

Q: Which results are given for “heterotrimeric G protein consisting of human Gαs, bovine Gβ1, and human Gγ2 (from UniProt P63092 1-394; P62871 1-340; P59768 1-71) (complex)”?
A: initial [35S]-GTPγS binding rate, A2AAR in rHDL(ARA) against A2AAR in rHDL(POPC/POPG), full agonist [1]: 1.1 times; initial [35S]-GTPγS binding rate, A2AAR in rHDL(DHA) against A2AAR in rHDL(POPC/POPG), full agonist [1]: 1.88 times; GDP/GTP reaction rate, A2AAR in rHDL(DHA) against A2AAR in rHDL(ARA) [2]: 1.7 fold; initial [35S]-GTPγS binding rate, A2AAR in rHDL(DHA) in which DHA constitutes 15% of the acyl chains, against A2AAR in rHDL(POPC/POPG) [3]: 1.29 times
